Residue numbers refer to the chain shown, from its start.
T1: human BCMA on cells (endogenous, on multiple myeloma and lymphoma cell lines) (human, UniProt Q02223 1-184)
T1 sequence: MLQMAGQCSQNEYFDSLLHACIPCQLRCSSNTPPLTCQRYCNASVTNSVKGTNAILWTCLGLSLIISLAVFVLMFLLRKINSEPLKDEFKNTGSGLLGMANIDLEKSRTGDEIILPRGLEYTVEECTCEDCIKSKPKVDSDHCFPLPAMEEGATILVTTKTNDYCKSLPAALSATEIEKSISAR

T2: mouse BCMA-MFC (BCMA with C-terminal mFc tag) (mouse)
T2 construct: Tested at 30 nM only
T2 chain: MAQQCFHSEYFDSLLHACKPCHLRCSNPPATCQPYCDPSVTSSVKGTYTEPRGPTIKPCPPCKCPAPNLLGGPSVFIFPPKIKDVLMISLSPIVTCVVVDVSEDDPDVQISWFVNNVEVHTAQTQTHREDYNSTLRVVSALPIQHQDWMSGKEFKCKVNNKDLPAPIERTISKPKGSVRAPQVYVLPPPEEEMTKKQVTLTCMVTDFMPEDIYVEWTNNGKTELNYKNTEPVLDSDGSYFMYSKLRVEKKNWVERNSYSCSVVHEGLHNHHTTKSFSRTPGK

T3: human BCMA-MMH (extracellular domain of human BCMA with C-terminal myc-myc-hexahistidine tag) (human)
T3 construct: Monomeric antigen; the entry holds the ectodomain and the myc-myc-His tag; also called hBCMA.mmh; hBCMA.mmH
T3 chain: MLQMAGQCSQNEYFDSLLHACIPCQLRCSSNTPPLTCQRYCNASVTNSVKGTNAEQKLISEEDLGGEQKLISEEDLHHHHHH

T4: human BCMA-MFC (extracellular domain of human BCMA with C-terminal mFc tag) (human)
T4 construct: also called hBCMA.mFc
T4 chain: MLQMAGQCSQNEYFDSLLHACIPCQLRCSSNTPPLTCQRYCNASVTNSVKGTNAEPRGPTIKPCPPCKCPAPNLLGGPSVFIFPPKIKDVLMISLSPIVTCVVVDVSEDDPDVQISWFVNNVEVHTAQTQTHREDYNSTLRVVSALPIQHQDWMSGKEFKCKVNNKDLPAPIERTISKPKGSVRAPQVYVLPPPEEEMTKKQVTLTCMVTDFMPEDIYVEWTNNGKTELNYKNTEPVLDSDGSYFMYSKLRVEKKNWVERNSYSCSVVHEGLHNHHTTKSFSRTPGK

B1: REGN5458 (bsAb25441D), anti-BCMA x anti-CD3 bispecific antibody (bispecific antibody, V domains shown)
VH 1: EVQLVESGGGLVQPGGSLRLSCAASGFTFSNFWMTWVRQAPGKGLEWVANMNQDGSEKYYVDSVKGRFTISRDNAKSSLYLQMNSLRAEDTAVYYCARDREYCISTSCYDDFDYWGQGTLVTVSS
VH 2: EVQLVESGGGLVQPGRSLRLSCAASGFTFDDYSMHWVRQAPGKGLEWVSGISWNSGSKGYADSVKGRFTISRDNAKNSLYLQMNSLRAEDTALYYCAKYGSGYGKFYHYGLDVWGQGTTVTVSS
VL: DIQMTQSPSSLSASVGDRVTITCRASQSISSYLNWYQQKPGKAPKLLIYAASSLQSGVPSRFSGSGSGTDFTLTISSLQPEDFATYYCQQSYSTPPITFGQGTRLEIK
notes: Two different heavy chains paired with a common light chain; human Fc (captured by anti-human Fc in SPR); also called bsAb25441D9; mAb25441D
B2: REGN5459 (bsAb25442D), anti-BCMA x anti-CD3 bispecific antibody (bispecific antibody, V domains shown)
VH 1: B1 VH 1
VH 2: B1 VH 2 with K58I, H108Y, L111M
VL: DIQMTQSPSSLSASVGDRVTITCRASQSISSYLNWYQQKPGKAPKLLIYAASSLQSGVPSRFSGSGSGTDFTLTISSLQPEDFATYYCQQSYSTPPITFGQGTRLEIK
notes: also called mAb25442D; mAb25442D-A647

Assays:
[1] = molecular target: T1, human BCMA on cells (endogenous, on …); assay: cell-based or functional assay
[2] = molecular target: T1, human BCMA on cells (endogenous, on …); assay: cell-based or functional assay; remark: listed apart in the source
[3] = molecular target: T1, human BCMA on cells (endogenous, on …); assay: cell-based or functional assay; remark: listed apart in the source
[4] = molecular target: T1, human BCMA on cells (endogenous, on …); assay: cell-based or functional assay; remark: listed apart in the source
[5] = molecular target: T1, human BCMA on cells (endogenous, on …); assay: cell-based or functional assay; remark: listed apart in the source
[6] = molecular target: T2, mouse BCMA-MFC (BCMA with C-terminal …); assay: SPR, Biacore, mAb captured by anti-hFc, 25 C
Experimental: (§1) The CM5 Biacore sensor surface was derivatized by amine coupling with a monoclonal mouse anti-human Fc antibody (GE, #BR-1008-39) to capture purified anti-BCMA mAbs and anti-BCMA×anti-CD3 bispecific mAbs. All Biacore binding studies were performed in a buffer composed of 0.01M HEPES pH 7.4, 0.15M NaCl, 3 mM EDTA, 0.05% v/v Surfactant P20 (HBS-ET running buffer). […] Antigen samples were then injected over the anti-BCMA and anti-BCMA×anti-CD3 bispecific mAbs captured surfaces at a flow rate of 30 μL/minute. Antibody-reagent association was monitored for 5 minutes while dissociation in HBS-ET running buffer was monitored for 10 minutes. All of the binding kinetics experiments were performed at 25° C. Kinetic association (kₐ) and dissociation (kd) rate constants were determined by fitting the real-time sensorgrams to a 1:1 binding model using Scrubber 2.0c curve fitting software. Binding dissociation equilibrium constants (KD) and dissociative half-lives (t½) were calculated from the kinetic rate constants as: […]

[7] = molecular target: T3, human BCMA-MMH (extracellular domain of …); assay: SPR, Biacore, mAb captured by anti-hFc, 25 C
Experimental: as §1

[8] = molecular target: T4, human BCMA-MFC (extracellular domain of …); assay: SPR, Biacore, mAb captured by anti-hFc, 25 C
Experimental: as §1

[9] = molecular target: T5, human CD3 on Jurkat cells and primary human CD8+ T cells (human, UniProt P07766 23-207; P04234 22-171; P20963 22-164; P09693 23-182); assay: flow cytometry on primary human CD8+ T cells, n=1
T5 construct: Endogenous CD3 complex on cells; also called hCD3; Jurkat-hCD3
Experimental: Flow cytometric analysis was utilized to determine binding of BCMA×CD3 bispecific antibodies to human and cynomolgus CD3 (Jurkat cells, mfCD3 engineered Jurkat cells, primary human CD8+ and cynomolgus CD8+ T cells). Briefly, 1e05 cells/well were incubated in the presence of FACS wash with block (PBS+1% filtered FBS+5% mouse serum) with a serial dilution of BCMA×CD3 and control antibodies for 30 minutes on ice. After incubation, the cells were washed twice with cold FACS wash (PBS+1% filtered FBS) and bound antibody was detected by incubating with Alexa647-conjugated anti-human secondary antibody on ice for an additional 30 minutes. Wells containing no antibody or secondary only were used as a control. For the detection of monkey and human T cells, a cocktail of human and cynomolgus cross-reactive antibodies to CD4, CD8 and CD16 was added to the anti-human secondary. After incubation, cells were washed, re-suspended in 200 μL cold PBS containing 1% filtered FBS and analyzed by flow cytometry on a BD FACS Canto II. Cells were gated by FSC-H by FSC-A to select singlet events, followed by side and forward scatters to select for live events. For monkey T cells, additional gating on CD8+/CD16− cells was performed.
EC50 values for FACS binding were calculated using 4-parameter non-linear regression analysis in Prism software.

T5 sequence (P07766 23-207 limits assumed, chain 1 of 4): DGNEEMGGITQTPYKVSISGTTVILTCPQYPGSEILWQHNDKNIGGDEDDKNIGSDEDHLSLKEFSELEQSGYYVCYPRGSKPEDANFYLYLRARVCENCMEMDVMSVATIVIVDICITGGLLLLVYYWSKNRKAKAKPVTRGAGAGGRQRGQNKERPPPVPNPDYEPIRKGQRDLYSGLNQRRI
T5 sequence (P04234 22-171 limits assumed, chain 2 of 4): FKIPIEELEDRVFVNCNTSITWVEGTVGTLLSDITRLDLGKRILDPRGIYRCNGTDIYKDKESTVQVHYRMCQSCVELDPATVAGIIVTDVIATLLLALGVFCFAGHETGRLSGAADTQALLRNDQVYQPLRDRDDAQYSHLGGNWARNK
T5 sequence (P20963 22-164 limits assumed, chain 3 of 4): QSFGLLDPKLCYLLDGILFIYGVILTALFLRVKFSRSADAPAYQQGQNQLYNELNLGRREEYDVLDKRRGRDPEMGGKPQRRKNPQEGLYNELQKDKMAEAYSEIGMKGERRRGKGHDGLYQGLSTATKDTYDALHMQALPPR
T5 sequence (P09693 23-182 limits assumed, chain 4 of 4): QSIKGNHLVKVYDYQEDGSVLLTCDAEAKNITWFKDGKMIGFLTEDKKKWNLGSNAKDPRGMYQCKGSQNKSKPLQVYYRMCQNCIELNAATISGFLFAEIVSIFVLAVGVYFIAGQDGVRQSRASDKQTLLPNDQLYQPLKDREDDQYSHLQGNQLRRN

Binder | EC50 of NFAT-luciferase activity, Jurkat/NFATLuc reporter cells with Daudi cells [1] | EC50 of NFAT-luciferase activity, Jurkat/NFATLuc reporter cells with MM1-S cells [1] | EC50 of NFAT-luciferase activity, Jurkat/NFATLuc reporter cells with NCI-H929 cells [1] | EC50 of NFAT-luciferase activity, Jurkat/NFATLuc reporter cells with OPM-2 cells [1] | EC50 of NFAT-luciferase activity, Jurkat/NFATLuc reporter cells with MOLP-8 cells [2] | EC50 of NFAT-luciferase activity, Jurkat/NFATLuc reporter cells with RPMI-8226 cells [2] | EC50 of NFAT-luciferase activity, Jurkat/NFATLuc reporter cells with Raji cells [2] | median EC50 of % Survival, H929 target cells, human effector cells (FACS cytotoxicity) [3] | median EC50 of % Survival, MM1S target cells, human effector cells (FACS cytotoxicity) [3] | median EC50 of % Survival, U266 target cells, human effector cells (FACS cytotoxicity) [3] | median EC50 of % T activation (CD25 on CD8+ T cells), H929 target cells, human effector cells [3] | median EC50 of % T activation (CD25 on CD8+ T cells), MM1S target cells, human effector cells [3] | median EC50 of % T activation (CD25 on CD8+ T cells), U266 target cells, human effector cells [3] | median EC50 of % Survival, Molp8 target cells, human effector cells (FACS cytotoxicity) [4] | median EC50 of % Survival, RPMI8226 target cells, human effector cells (FACS cytotoxicity) [4] | median EC50 of % T activation (CD25 on CD8+ T cells), Molp8 target cells, human effector cells [4] | median EC50 of % T activation (CD25 on CD8+ T cells), RPMI8226 target cells, human effector cells [4] | median EC50 of % Survival, H929 target cells, cynomolgus effector cells (FACS cytotoxicity) [5] | median EC50 of % T activation, H929 target cells, cynomolgus effector cells [5] | 30 nM mfBCMA.mFc Bind (RU) (mouse BCMA-MFC by the table's title) [6] | other results
B1 | 2.1 nM | 1.2 nM | 0.68 nM | 0.66 nM | 1.4 nM | 0.61 nM | 1.6 nM | 0.103 nM | 0.0646 nM | 0.328 nM | 0.211 nM | 0.0706 nM | 0.107 nM | 0.707 nM | 0.0345 nM | 1.1 nM | 0.0649 nM | 0.0234 nM | 0.0683 nM | 2.7 RU | binding result [6]: no binding (tested: 30 nM); 90 nM hBCMA.mmh Bind (RU) [7]: 19.9 RU; Kd [7]: 1.06 nM; koff [7]: 0.000874 s⁻¹; kon [7]: 827000 M⁻¹ s⁻¹; t½ [7]: 13.2 min; 30 nM hBCMA.mFc Bind (RU) [8]: 107 RU; Kd [8]: ≤ 0.0223 nM; koff [8]: ≤ 1e-05 s⁻¹; kon [8]: 448000 M⁻¹ s⁻¹; t½ [8]: ≤ 1160 min; EC50 [9]: 32 nM
B2 | 7.9 nM | 4.4 nM | 2.7 nM | 2.6 nM | 11 nM | 2.6 nM | 7.4 nM | 0.301 nM | 0.288 nM | 1.66 nM | 0.3 nM | 0.458 nM | 0.469 nM | 1.36 nM | 0.106 nM | 6.47 nM | 0.75 nM | 0.0692 nM | 0.158 nM | 2.4 RU | binding result [6]: no binding (tested: 30 nM); 90 nM hBCMA.mmh Bind (RU) [7]: 17 RU; Kd [7]: 1.38 nM; koff [7]: 0.00101 s⁻¹; kon [7]: 730000 M⁻¹ s⁻¹; t½ [7]: 11.5 min; 30 nM hBCMA.mFc Bind (RU) [8]: 96.8 RU; Kd [8]: ≤ 0.0223 nM; koff [8]: ≤ 1e-05 s⁻¹; kon [8]: 449000 M⁻¹ s⁻¹; t½ [8]: ≤ 1160 min; EC50 [9]: 4710 nM

Reference: patent publication US20220306758A1 (Regeneron, published 2022)
